Experimental data from patent US6794491B1, “Polypeptides, their production and use” (Takeda Chemical Industries, Ltd., priority 1995, dated 2004).
Where no end group is shown, it is not given here.

Assays:
[1] = target: T1, UHR-1 expressed in CHO cells (CHO-UHR1) (Rattus norvegicus, UniProt Q64121, L289V); assay: release of arachidonic acid metabolites from CHO-UHR1 cells; assay type: cell-based; conditions: CHO cells expressing rat homolog UHR1; duplicate
T1 construct: expressed in transfected cells; host or cells: CHO dhfr- cells transfected with pAKKO-UHR-1
T1 sequence (Q64121 1-370 L289V): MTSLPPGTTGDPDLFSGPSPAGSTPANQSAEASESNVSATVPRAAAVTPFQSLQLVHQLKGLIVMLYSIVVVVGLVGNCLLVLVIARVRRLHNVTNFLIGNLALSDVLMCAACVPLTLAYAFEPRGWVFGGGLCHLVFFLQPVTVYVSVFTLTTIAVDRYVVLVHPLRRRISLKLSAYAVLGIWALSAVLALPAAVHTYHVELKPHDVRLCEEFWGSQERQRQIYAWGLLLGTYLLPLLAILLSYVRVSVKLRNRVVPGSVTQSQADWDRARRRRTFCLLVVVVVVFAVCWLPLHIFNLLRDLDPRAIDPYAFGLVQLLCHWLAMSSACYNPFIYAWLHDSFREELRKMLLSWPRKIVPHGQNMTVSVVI
Description: The full-length receptor protein-expressed CHO cells and mock CHO cells were seeded in a 24-well plate, 0.5×10^5 cells/well, and cultured for 24 hours. Then, [^3H] arachidonic acid was added at a final concentration of 0.25 μCi/well. Sixteen (16) hours after addition of [^3H] arachidonic acid, the cells were rinsed with 0.05% BSA-HBSS and the above-mentioned crude peptide fraction was added, 400 μl/well. The mixture was incubated at 37° C. for 30 minutes and a 300 μl portion of the reaction mixture (400 μl) was added to 4 ml of a scintillator and the amount of [^3H] arachidonic acid metabolite released into the reaction mixture was determined with a scintillation counter.
Same as described in Example 11, the release activity of arachidonic acid metabolite was measured on CHO-19P2-9 and CHO-UHR1 and mock CHO.

[2] = blood pressure after injection into the area postrema of medula oblongata; assay type: in vivo, male Wistar rats; conditions: 10 nmol into the area postrema of medula oblongata, conscious rats
Description: The inventors explored the influence of injection of 19P2-L31 into the area postrema of medula oblongata on blood pressure. Mature male Wistar rats (body weights at operation: ca 300 g) were anesthetized with pentobarbital 50 mg/kg i.p. and each animal was immobilized in a rat brain stereotaxic apparatus. The incisor bar was lowered by 3.3 mm from the interaural line. The skull was exposed, and using a dental drill a hole was made on the skull for implantation of a guide cannula. In addition, anchor screws were buried in two positions around the drilled hole. A stainless-steel guide cannula, AG-12 (0.4 mm inside dia., 0.5 mm out. dia., EICOM), was inserted in such a manner that its leading end would be situated in the upper part of the area postrema. […] With reference to the atlas of Paxinos and Watson (1986), the stereotaxic coordinates were AP: −6.0 mm (from interaural line), L: 0.0 mm, and H: +1.5 mm (from interaural line). […]
After waiting overnight postoperatively, the polyethylene tube was connected to a transducer (Spectramed) and the blood pressure was measured. After blood pressure readings became steady, the cap nut and dummy cannula were removed from the rat skull and, instead, a stainless steel microinjection cannula (0.17 mm in. dia., 0.35 mm out. dia., EICOM) connected to a Teflon tube (50 cm long, 0.1 mm in. dia., 0.4 mm out. dia., EICOM) was inserted. […]

- release activity of arachidonic acid metabolite [1]: detected same as CHO-19P2-9
Substance: Ser-Arg-Ala-His-Gln-His-Ser-Met-Glu-Ile-Arg-Thr-Pro-Asp-Ile-Asn-Pro-Ala-Trp-Tyr-Ala-Gly-Arg-Gly-Ile-Arg-Pro-Val-Gly-Arg-Phe-NH2 (SRAHQHSMEIRTPDINPAWYAGRGIRPVGRF-NH2) [19P2-L31, synthetic ligand polypeptide]
- blood pressure [2]: caused an elevation of blood pressure
